Here are results for 13 molecules from patent publication US20150344570A1 (published 2015).

First the molecules themselves.
B1: H240-Kn179/H240-Hl089/L73-k0 (antibody, human IgG1, kappa)
heavy 1: QDQLVQSGAEVKKPGASVKVSCKASGFNIKDTYIQWVRQAPGQGLEWMGRIDPLRKQTKYREKFEGRVTITADTSTNTAYMELSSLRSEDTAVYYCVRSGREFDYWGQGTLVTVSSASTKGPSVFPLAPSSKSTSGGTAALGCLVKDYFPEPVTVSWNSGALTSGVHTFPAVLQSSGLYSLSSVVTVPSSSLGTQTYICNVNHKPSNTKVDKKVEPKSCDKTHTCPPCPAPEYYWGPMVFLFPPKPKDTLMISRTPEVTCVVVDVSDEDPEVKFNWYVDGVEVHNAKTKPREKQYNATYRVVSVLTVLHQDWLNGKEYKCKVSNKDLPAPIEKTISKAKGQPREPQVCTLPPSRDELTKNQVSLWCLVKGFYPSDIAVEWESNGQPENNYKTTPPVLDSDGSFFLYSKLTVDKSRWQQGNVFSCSVMHEALHNHYTQKSLSLSP
heavy 2: QDQLVQSGAEVKKPGASVKVSCKASGFNIKDTYIQWVRQAPGQGLEWMGRIDPLRKQTKYREKFEGRVTITADTSTNTAYMELSSLRSEDTAVYYCVRSGREFDYWGQGTLVTVSSASTKGPSVFPLAPSSKSTSGGTAALGCLVKDYFPEPVTVSWNSGALTSGVHTFPAVLQSSGLYSLSSVVTVPSSSLGTQTYICNVNHKPSNTKVDKKVEPKSCDKTHTCPPCPAPELLTGPSVFLFPPKPKDTLMISRTPEVTCVVVDVSHEEPEVKFNWYVDGVEVHNAKTKPREEQYNSTYRVVSVLTVLHQDWLNGKEYKCKVSNDALPKPIEETISKAKGQPREPQVYTLPPSRCELTKNQVSLSCAVKGFYPSDIAVEWESNGQPENNYKTTPPVLDSDGSFFLVSKLTVDKSRWQQGNVFSCSVMHEALHNHYTQKSLSLSP
light: DIQMTQSPSSLSASVGDRVTITCRASQDIHKYIAWYQQKPGQAPRLLIQYTSTLQPGVPSRFSGSGSGTDYTFTISSLQPEDIATYYCLQYEQLRTFGGGTKVEIKRTVAAPSVFIFPPSDEQLKSGTASVVCLLNNFYPREAKVQWKVDNALQSGNSQESVTEQDSKDSTYSLSSTLTLSKADYEKHKVYACEVTHQGLSSPVTKSFNRGEC
notes: Combination of E294R in the Kn chain and G236T in the Hl chain; also called H240-Kn179/H240-HI089/L73-k0
B2: H240-Kn180/H240-Hl089/L73-k0 (antibody, human IgG1, kappa)
heavy 1: B1 heavy 1 with K293R
heavy 2: B1 heavy 2
light: B1 light
notes: Combination of E294K in the Kn chain and G236T in the Hl chain; also called H240-Kn180/H240-HI089/L73-k0
B3: H240-Kn193/H240-Hl204/L73-k0 (antibody, human IgG1, kappa)
heavy 1: B1 heavy 1 with Y234N, K293R
heavy 2: B1 heavy 2 with I331E
light: B1 light
notes: H240-Kn193 is H240-Kn120 with Y235N and E294R; also called H240-Kn193/H240-HI204/L73-k0
B4: H240-Kn192/H240-Hl204/L73-k0 (antibody, human IgG1, kappa)
heavy 1: B1 heavy 1 with Y234N
heavy 2: B1 heavy 2 with I331E
light: B1 light
notes: H240-Kn192 is H240-Kn120 with Y235N and E294K; also called H240-Kn192/H240-HI204/L73-k0
B5: H240-Kn192/H240-Hl204/L73-k0 (antibody, human IgG1, kappa)
heavy 1: B1 heavy 1 with Y234N
heavy 2: B1 heavy 2 with I331E
light: B1 light
notes: Y235N and E294K in H240-Kn120; G236T and I332E in H240-Hl068; also called H240-Kn192/H240-HI204/L73-k0
B6: H240-Kn221/H240-Hl068/L73-k0 (antibody, human IgG1, kappa)
heavy 1: B1 heavy 1 with Y233T, K293E
heavy 2: B1 heavy 2 with T235G
light: B1 light
B7: H240-Kn202/H240-Hl076/L73-k0 (antibody, human IgG1, kappa)
heavy 1: B1 heavy 1 with Y233E, Y234Q, D269E, K293E, D326A
heavy 2: B1 heavy 2 with T235G, K329M
light: B1 light
B8: H240-Kn193/H240-Hl204/L73-k0 (antibody, human IgG1, kappa)
heavy 1: B1 heavy 1 with Y234N, K293R
heavy 2: B1 heavy 2 with I331E
light: B1 light
notes: Y235N and E294R in H240-Kn120; G236T and I332E in H240-Hl068; also called H240-Kn193/H240-HI204/L73-k0
B9: H240-Kn184/H240-Hl068/L73-k0 (antibody, human IgG1, kappa)
heavy 1: B1 heavy 1 with Y233E, K293E
heavy 2: B1 heavy 2 with T235G
light: B1 light
B10: H240-Kn199/H240-Hl068/L73-k0 (antibody, human IgG1, kappa)
heavy 1: B1 heavy 1 with Y233L, K293E
heavy 2: B1 heavy 2 with T235G
light: B1 light
B11: H240-Kn217/H240-Hl068/L73-k0 (antibody, human IgG1, kappa)
heavy 1: B1 heavy 1 with Y233D, K293E
heavy 2: B1 heavy 2 with T235G
light: B1 light
B12: H240-Kn208/H240-Hl076/L73-k0 (antibody, human IgG1, kappa)
heavy 1: B1 heavy 1 with Y233D, Y234Q, D269E, K293E, D326A
heavy 2: B1 heavy 2 with T235G, K329M
light: B1 light
B13: H240-Kn201/H240-Hl076/L73-k0 (antibody, human IgG1, kappa)
heavy 1: B1 heavy 1 with Y233F, Y234Q, D269E, K293E, D326A
heavy 2: B1 heavy 2 with T235G, K329M
light: B1 light

Changes are numbered by the printed parent chain. Numbers in names are those of the source. Some results are limits rather than exact numbers.

T5 sequence (P08637 17-208 F176V): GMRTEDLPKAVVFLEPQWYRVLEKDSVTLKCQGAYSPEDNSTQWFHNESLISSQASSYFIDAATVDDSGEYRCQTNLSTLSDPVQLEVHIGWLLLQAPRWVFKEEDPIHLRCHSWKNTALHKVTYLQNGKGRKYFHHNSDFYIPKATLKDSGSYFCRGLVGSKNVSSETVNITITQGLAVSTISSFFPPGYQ

One assay addresses T1, FcgRIIa R type extracellular domain, C-terminal His tag (human, UniProt P12318 34-217).
T1 construct: extracellular domain; Soluble analyte in Biacore; also called FcγRIIa R; FcγRIIa(R); not shown: His tag at the C terminus
T1 sequence (looked up): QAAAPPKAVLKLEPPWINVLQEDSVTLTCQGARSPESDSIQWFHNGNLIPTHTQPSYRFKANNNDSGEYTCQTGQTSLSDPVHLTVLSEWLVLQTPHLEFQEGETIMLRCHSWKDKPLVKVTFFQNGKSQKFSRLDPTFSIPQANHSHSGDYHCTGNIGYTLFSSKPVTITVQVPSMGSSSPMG
In words: SPR (Biacore); KD of H240-Kn120/H240-Hl068/L73-k0 divided by KD of the variant. The protocol: (§1) H240-Kn179/H240-H1089/L73-k0, H240-Kn180/H240-Hl089/L73-k0, H240-Kn192/H240-Hl204/L73-k0, and H240-Kn193/H240-Hl204/L73-k0 were prepared by combining each of H240-Kn192 and H240-Kn193 as an H chain, L73-k0 as the L chain, and H240-Hl089 and H240-Hl204 as the other H chain according to the method described in Reference Example 1. The variants described above were assessed for their binding to FcγR according to the method described in Reference Example 8.
(§2) Analysis of interaction between objective antibody and the FcγR was carried out using Biacore T100 (GE Healthcare), Biacore T200, Biacore A100, and Biacore 4000. HBS-EP+ (GE Healthcare) was used as the running buffer, and the measurement temperature was set to 25° C. Chips produced by immobilizing the antigen peptide by the amine coupling method to a Series S sensor Chip CM5 (GE Healthcare), chips produced by allowing preliminarily biotinylated antigen peptides to interact with and immobilize onto a Series S Sensor Chip SA (certified) (GE Healthcare), chips produced by immobilizing Protein L (ACTIGEN, BioVision) to Series S Sencor Chip CM5 (GE Healthcare), or chips produced by immobilizing Protein A/G (Thermo Scientific) to Series S Sencor Chip CM5 (GE Healthcare) were used. Antibodies of interest were captured onto these chips, and allowed to interact to each FcγR diluted with running buffer. To regenerate and repeatedly use the chip, the antibodies captured onto the chip were washed off by reacting 10 mM glycine-HCl, pH 1.5.
With B1, the “relative KD” value came out at 1.1.

Consider B2, for which the “relative KD” value stood at 1.3.

In the case of B3, the “relative KD” value stood at 1.3.

For the molecule B4, the “relative KD” value came out at 1.1.

A further assay has as its target T2, FcgRIIb extracellular domain, C-terminal His tag (human, UniProt P31994 43-217).
T2 construct: extracellular domain; Soluble analyte in Biacore; also called FcγRIIb; not shown: His tag at the C terminus
T2 sequence (looked up): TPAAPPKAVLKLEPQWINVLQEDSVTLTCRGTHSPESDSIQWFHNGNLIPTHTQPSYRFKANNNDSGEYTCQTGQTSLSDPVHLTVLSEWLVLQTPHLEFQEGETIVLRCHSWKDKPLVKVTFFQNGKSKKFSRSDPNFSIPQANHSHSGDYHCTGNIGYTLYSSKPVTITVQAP
The assay is described as above. On the procedure:
as §1, §2
Regarding B1, the “relative KD” value came to 0.4.

For B2, the “relative KD” value came to 0.4.

For the molecule B3, the “relative KD” value is 0.5.

For the molecule B4, the “relative KD” value was determined as 0.5.

The target of another assay is T3, FcgRIIIa F type extracellular domain, C-terminal His tag (human, UniProt P08637 17-208).
T3 construct: extracellular domain; Soluble analyte in Biacore; also called FcγRIIIa F; not shown: His tag at the C terminus
T3 sequence (P08637 17-208): as the sequence (P08637 17-208 F176V) above, with V160F counted along it
The assay is described as above. On the procedure:
as §1, §2
With B1, the “relative KD” value is 0.1.

With B2, the “relative KD” value amounted to 0.1.

For the molecule B3, the “relative KD” value is 0.2.

For B4, the “relative KD” value was 0.2.

In a further assay the target is T4, FcgRIIa H type extracellular domain, C-terminal His tag (human, UniProt P12318 34-217).
T4 construct: extracellular domain; Soluble analyte in Biacore; also called FcγRIIa H; FcγRIIa(H); not shown: His tag at the C terminus
T4 sequence (looked up): T1 sequence (looked up) with R134H
The assay is described as above. On the procedure: as §1, §2
Take B1: the “relative KD” value amounted to 0.9.

As for B2, the “relative KD” value came to 1.1.

For B3, the “relative KD” value is 1.2.

As to B4, the “relative KD” value was 1.

A further assay concerns the target T5, FcgRIIIa V type extracellular domain, C-terminal His tag (human, UniProt P08637 17-208).
T5 construct: extracellular domain; Soluble analyte in Biacore; also called FcγRIIIa V; not shown: His tag at the C terminus
Described as above. On the procedure:
as §1, §2
As to B1, the “relative KD” value amounted to 0.

Take B2: the “relative KD” value is 0.

With B3, the “relative KD” value was 0.2.

As to B4, the “relative KD” value was 0.2.

In another assay the target is FcγRIIIa V (human, UniProt P08637 17-208). In words: SPR (Biacore), KD.
Sequence of FcγRIIIa V (P08637 17-208): as the sequence (P08637 17-208 F176V) above, with V160F counted along it
Turning to B5, the “fold binding against the variant before introduction of I332E and Y235N” value (from here on “fold binding … of I332E and Y235N”) is 8 times.

For B6, the “fold binding activity against H240-Kn033/H240-Hl033/L73-k0” value (shortened to “fold binding activity”) was at least 100 fold.

On to B7, for which the “fold binding activity” value is at least 100 fold.

Consider B8, for which the “fold binding … of I332E and Y235N” value is 8 times.

On to B9, for which the “fold binding activity” value was at least 100 fold.

On to B10, for which the “fold binding activity” value was at least 100 fold.

Regarding B11, the “fold binding activity” value was at least 100 fold.

In the case of B12, the “fold binding activity” value is at least 100 fold.

In the case of B13, the “fold binding activity” value is at least 100 fold.

The target of another assay is FcγRIIIa F (human, UniProt P08637 17-208). The assay is described as follows: SPR (Biacore), KD. In general terms: SPR reads the build-up and loss of mass on a sensor chip optically.
Sequence of FcγRIIIa F (P08637 17-208): as the sequence (P08637 17-208 F176V) above, with V160F counted along it
On to B5, for which the “fold binding … of I332E and Y235N” value was 2 times.

For the molecule B6, the “fold binding activity” value is at least 100 fold.

With B7, the “fold binding activity” value was at least 100 fold.

On to B8, for which the “fold binding … of I332E and Y235N” value was 2 times.

Take B9: the “fold binding activity” value was at least 100 fold.

B10: the “fold binding activity” value is at least 100 fold.

Take B11: the “fold binding activity” value was at least 100 fold.

As to B12, the “fold binding activity” value is at least 100 fold.

For B13, the “fold binding activity” value was at least 100 fold.
